# From paper PMC5509211
# Molecular target: actin filaments (skeletal muscle) (Gallus gallus), P68139
# Conditions: modification not given
binder,measurement,value
MGVADLIKKFESISKEE [mEGFP-Lifeact],Kd,9.3 µM
